Assay results taken from the nanobody polyreactivity screen of Harvey et al. (2022).

Experiment: yeast display, Sf9 membrane polyspecificity reagent, FACS + sequencing; frameworks hold sequencing errors
Summary of the method: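 A synthetic nanobody library was expressed on Saccharomyces cerevisiae BJ5465 by galactose induction for 36–48 hours. The library was stained for 1 hour at 4 °C with 10% biotinylated, detergent-solubilized Sf9 membrane reagent and enriched with streptavidin microbeads before FACS. Low and high (top ~1%) gates were set on anti-HA fluorescence for expression and streptavidin fluorescence for reagent binding, and each polyreactivity label reflects the gate of origin.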

Row | Sequence | polyreactivity (PSR sort gate)
1 | QVQLVESGGGLVQAGGSLRLSCAASGRTYIYNAMGWYRQAPGKERELVAAISFRGGSTYYADSVKGRFTISRDNAKNTVYLQMNSLKPEDTAVYYCNAVRFYRYGWGQGTQVTVSS | high polyreactivity
2 | QVQLVESGGGLVQAGGSLRLSCAASGRTYLYYVMGWYIQAPGKEREVVAAISYSGGSTYYADSVKGRFTISRDNAKNTVYLQMNSLKPEDTAVYYCTAVPVVRAGHGYDSWGQGTQVTVSS | high polyreactivity
3 | QVQLVESGGGLVQAGGSLRLSCAASGRTYNTNAMGWYRQAPGKERELVAAISGGGSTYADSVKGRFTISRDNAKNTVYLQMNSLKPEDTAVYYCAAQNVWFYGFWRDYWGQGTQVTVSS | low polyreactivity
4 | QVQLVESGGGLVQAGGSLRLSCAASGRTYPAYAMGWYRQAPGKERELVAAITYDGGTTYYADSVKVRFTISRDNAKNTVYLQMNSLKPEDTAVYYSAAVYDEDQYDYWGQGTQVTVSS | low polyreactivity
5 | QVQLVESGGGLVQAGGSLRLSCAASGRTYPGNAMGWYRPAPGKERELVAAISWSGTRTYYADSVKGRFTISRDNAKNTVYLQMNSLKPEDTAVHFCNVVVKGAWDYYPYDYWGQGTQVTVSS | high polyreactivity
6 | QVQLVESGGGLVQAGGSLRLSCAASGRTYRRNAMGWYRQAPGKERELVAAIRSDGSTYYADSVKGRFTISRDNAKNTVYLQMNRLKPEDTAVYYCNAVYVSSFTCHDYWGQGTQVTVSS | low polyreactivity
7 | QVQLVESGGGLVQAGGSLRLSCAASGRTYRRYAMGWYRQAPGKERELVASISRTGGSTYYADAVKRRYTISRDNAKNTVYLQMNSLKPVDTAVYYCNAGPSVGWYNYWGQGTQVSVSS | high polyreactivity
8 | QVQLVESGGGLVQAGGSLRLSCAASGRTYSYYAMGWYRQAPGKERQLVAAITTRTGSTYYADSVKGRFTISRDNAKNTVYLQMNSLKPEDTAVYYCAAEPRYLRSGKGFDYWGQGTQVTVSS | high polyreactivity
9 | QVQLVESGGGLVQAGGSLRLSCAASGRTYTGYGMGWSRQAPGKERELVAAITWRGDRTYYADSVKGRFTISRDNAKNTVYLQMNSLKPEDTAVYYCNKLGRIQYDYWGQGTQVTVSS | high polyreactivity
10 | QVQLVESGGGLVQAGGSLRLSCAASGRTYTYAMGWYRQAPGKERELVAGISRRGGNTYYADSVKGRFTISRDNAKNTVYLQMNSLKPEDTAVYYCAAVSFSASSYTYEYWGQGTQVTVSS | high polyreactivity
11 | QVQLVESGGGLVQAGGSLRLSCAASGRTYVFYVMGWYRQAPGKERELVASISRSGGSTYYADSVKGRFTISRDNAKNTVYLQMNSLKPEDTAVYYCAADQLYYGERDYIWGYYYWGQGTQVTVSS | low polyreactivity
12 | QVQLVESGGGLVQAGGSLRLSCAASGRTYVPNAMGWYRQAPGKEREFVAAITSRGGRTFYADSVKGRFTISRDNAKNTVYLQMNSLKPDDTAVYYCAAYRPGFVYGRLDYWGQGTQVTVSS | high polyreactivity
13 | QVQLVESGGGLVQAGGSLRLSCAASGRTYVRDTMGWYRQAPGQERQLVAAITWSGGSTYYADSVKGRFTISRDNAKNTVYLQMNSLKPEDTAVYYCARRYSPHTSVSYYSWGQGNQVTVSS | high polyreactivity
14 | QVQLVESGGGLVQAGGSLRLSCAASGRTYYWNAMGWYRQAPGKEREFVAAITNTAGSTYYADSVKGRFTISRDNAKNTVYLQMNSLKPEDTAVYYCAKSGNAGYRTYLRDYWGQGTQVTVSS | low polyreactivity
15 | QVQLVESGGGLVQAGGSLRLSCAASGRTYYWYAMGWYRQAPGKERELVAAISSGGSTYYADSVKGRFTISRDNAKNTVSLQMISLKPEDTAVYYCAAYPQAYIADYDYWGQGTQVTVSS | low polyreactivity
16 | QVQLVESGGGLVQAGGSLRLSCAASGRYAMGWYRQAPGKVRELVAAISDSDGSTYYADSVKGRFTISRDNAKTNVYLQMNSLKPEDTAVNYCDARSIVRFDSWGQGTQVTVSS | low polyreactivity
17 | QVQLVESGGGLVQAGGSLRLSCAASGSIAGNAMGWYRQARGKEREMVAAITFRGSGTYYADSVKGRFTISRDNAKKTVYLQMNSLKPEDTAVYYCNAYRRGLSGYGYWGQGTQVTVSS | high polyreactivity
18 | QVQLVESGGGLVQAGGSLRLSCAASGSICDVNAMGWYRQAPGKEREMVAAISDSGGSTYYADSVKGRFTISRDTAKNTVYLQMNSLNPEDTSVYYCNADWSWYNYYDFDYWGQGTQVTVSS | low polyreactivity
19 | QVQLVESGGGLVQAGGSLRLSCAASGSICGGYAMGWYRQAPGKERELVAGITRSGGSTYYADSVKGRFTISRDNAKNTVYLQMNSLKPEDTAVYYCAVEIQFYRSPRKVRSYDYWGQGTQVTVSS | low polyreactivity
20 | QVQLVESGGGLVQAGGSLRLSCAASGSICGLYDMRWYRQAPGKERELVASITGGGSTYADSVKGRFTISRDNAKNTVYLQMNSLKPEDTAVYSFAAKPYSFYGYKYDYWGQGTQVTVSS | low polyreactivity
21 | QVQLVESGGGLVQAGGSLRLSCAASGSIFAANAMGWYRQAPGKERELVAAISRSGNTYYADSVKGRFTISRDNAKNTVYLQMNSLKPEDTAVYYCAARRDAYGRTYGYWGQGTQVTVSS | high polyreactivity
22 | QVQLVESGGGLVQAGGSLRLSCAASGSIFAANAMGWYRQAPGKERELVADITKSGGSTYYADSVKGRFTISRDNAKNTVYLQMNSLKPEDTAVYYCNADDTQLESFAPGHGYDYWGQGTQVTVSS | low polyreactivity

Row | Sequence | polyreactivity (PSR sort gate)
23 | QVQLVESGGGLVQAGGSLRLSCAASGSIFAANVMGWYRQAPGKERELVAVISGGGGRTFYADSVKGRFTISRDNAKNTVYLQMNSLKPEDTAVYYCAADRRDRSPYYYWGQGTQVTVSS | high polyreactivity
24 | QVQLVESGGGLVQAGGSLRLSCAASGSIFAAYAMGWYRQAPGKERELVAAIDRGGSTDYADSVKGRFTISRDNAKNTVYLQMNSLKPEDTAVYYCAKGYDYYVRRYYYWGQGTQVTVSS | high polyreactivity
25 | QVQLVESGGGLVQAGGSLRLSCAASGSIFAAYAMGWYRQAPGKERELVAAITSGGGTYYADSVKGRFTISRDNAKNTVYLQMNSLKPEDTAGYYCNAGNTYNRVIWPYYYWGQGTQVTVSS | high polyreactivity
26 | QVQLVESGGGLVQAGGSLRLSCAASGSIFAAYAMGWYRQAPGKERELVAVINSRGGITSYADSVKGRFTISRDNAKNTVYLQMNSLKPEDTAVYYFAARTWYSWRYDYWGQGTQVTVSS | high polyreactivity
27 | QVQLVESGGGLVQAGGSLRLSCAASGSIFADNTMGWSRQSPGKERELVAAITSSGRTYYADSVKGRFTISRDNAKNTVYLQMNSLKPEDTAVYYCAAVIYFHDYSPYYYWGQGTQVTVSS | high polyreactivity
28 | QVQLVESGGGLVQAGGSLRLSCAASGSIFADYAMGWYRQAPGKERELVAAITSGGSTYYADSVKGRFTISRDNAKNTVYLQKNSLKPEDTAVYYCAADWAFSRFAYQTDIYEYWGQGTQVTVSS | low polyreactivity
29 | QVQLVESGGGLVQAGGSLRLSCAASGSIFAFYAMGWYRQSPGKERELVAAISYNGGSTYYADSVKVRFTLSRDNAKNTVYLQMNSLEPEDTAVYYCAAYHFSAPSEYDYWGQGTQVTVSS | low polyreactivity
30 | QVQLVESGGGLVQAGGSLRLSCAASGSIFAGNAMGWYRQAPGKERELVAGITFGDDSTYYADSVKGRFTISRDNAKNTVYLQMNSLKPEDTAVYYCATDLHPYNYYFYHYWVDAAYDYWGQGTQVTVSS | low polyreactivity
31 | QVQLVESGGGLVQAGGSLRLSCAASGSIFAHYAMGWYRQAPGKARELVAAISRGGGSTYYSDSVKGRFTISRDNAKNTVYLQMNSLKPEDTAVYYCAVVRSYRGINDYWGQGTQVTVTS | low polyreactivity
32 | QVQLVESGGGLVQAGGSLRLSCAASGSIFAKNAMGWYRQAPGKERELVAGIDFSGGSTYYADSVKGRFTISRDNAKNTVYLQMNSLKPEDTAVDYCAADWAYKYELDYWGQGTQVTVSS | low polyreactivity
33 | QVQLVESGGGLVQAGGSLRLSCAASGSIFAKYAMGWYRQAPGKEREFVAAIRASGGRTYYADSVKGRFTISRDNAKNTVYLQMNSLKPEDTAVYYCAAHLYSSRSDYDGPRSRRNYWGQGTQVTVSS | high polyreactivity
34 | QVQLVESGGGLVQAGGSLRLSCAASGSIFAKYGMGWYRQAPGKEREFVAAISKSGGITYYADSVKGRFTISRDNAKNTVYLQMNSLKPEDTAVYYCADSYVSYRKRDDYWGQGTQVTVSS | high polyreactivity
35 | QVQLVESGGGLVQAGGSLRLSCAASGSIFALYAMGWYRQAAGKERELVAAITKGGGSTYYADSVKGRFTISRDNAKNTVYLQMNSLKPEDTAVYYCAARGRYSAPDYGYWGQGTQVTVSS | high polyreactivity
36 | QVQLVESGGGLVQAGGSLRLSCAASGSIFALYAMGWYRQAPGKERELVAAISNTGGSTYYADSVKGRFTISRDNAKNTVYLQMNSLKPEDTAVYYCAARKARSSPRYYYWGQGTQVTVSS | high polyreactivity
37 | QVQLVESGGGLVQAGGSLRLSCAASGSIFALYAMGWYRQAPGKERELVAAISRRGGRTYYADSVKGRFTISRDNAKNTVYLQMNSLIPEDTAVYYCNARGYNVPHPNRYDYWGQGTQVTVSS | high polyreactivity
38 | QVQLVESGGGLVQAGGSLRLSCAASGSIFAPNAMGWYRQAPGKERELVARISRTGGSTNYADSVKGRFTISRDNAKNTVYLQMNSLKPEDTAVYYCNTQYSYSSAPPFWYTQMYYWGQGTQVTVSS | high polyreactivity
39 | QVQLVESGGGLVQAGGSLRLSCAASGSIFAPYAMGWYRQAPGKERELVATISSIGTSTYYADSVKGRFTISRDNAKNTVYLQMNSLKPEDTAVYYCAADQSGGYPDNYWGQGTQVTVSS | low polyreactivity
40 | QVQLVESGGGLVQAGGSLRLSCAASGSIFAQNAMGWYRQAPGKERELVAAITSGGSTYYADSVKGRFTISRDNAKNTVYLQMNSLKPEDTAVYYCAARGWGPFYQYYYLGQGTQVTVSS | high polyreactivity
41 | QVQLVESGGGLVQAGGSLRLSCAASGSIFAQYTMGWYRQAPGKERELVAVISFRGGSTYYADSVKGRFTISRDNAKNTVYLQMNSLKPEDTAVYYCATVGTYPGYGEFDYWGQGTQVTVSS | low polyreactivity
42 | QVQLVESGGGLVQAGGSLRLSCAASGSIFARFAMGWYRQAPGKERELVAAISGRGGSTYYADSVKGRFTISRDNAKNTVYLQMNSLKPEDTAVYYCNAVGHTSIRRALDILDYWGQVTQVTVSS | high polyreactivity
43 | QVQLVESGGGLVQAGGSLRLSCAASGSIFARNAMGWSRQAPGKERELVAGISRRGGSTYYADSVKGRFTISRDNAKNTVYLQMNSLKPEDTAVYYCNAVVYSPPYDYWGQGTQVTVSS | high polyreactivity
